Data set [1] in a line: Cutaneous penetration using Franz diffusion cells. The class given is in vitro ADME. The following applies: pig skin, 20 h incubation; for Cutaneous penetration (skin layers reached): 32° C., receptor solution analysed; for Change in cutaneous penetration upon conjugating the peptide with gold nanoparticles: FIG. 1. How it is done: Cutaneous penetration was determined using Franz cells. The pig skin samples used in the experiments were cut into circles 3 cm in diameter. The pig skin was mounted on the receptor compartment of a Franz diffusion cell system with the stratum corneum facing up towards the donor compartment. 18 ml of phosphate-buffered saline (PBS) were used as receptor solution. An aliquot of the test samples (nanoparticles of Example 1 (GNP-P1), nanoparticles of Example 2 (GNP-P2), nanoparticles of Example 3 (GNP), formulation of peptide P1 of Example 4, formulation of peptide P2 of Example 5, mixture of nanoparticles and peptide P1 (GNP+P1) of Example 6 was applied on the pig skin. The Franz diffusion cells were mounted on an H+P Labortechnik Varimag Telesystem (Munich, Germany) and placed in a thermostatic bath (Haake).
Untreated skin control was also included. The Franz diffusion cells were kept at 32° C., and after 20 h of incubation, the receptor solution was analyzed by means of UV-visible absorption spectroscopy using a Shimadzu spectrophotometer UV-1800 (Parc Cientific of Barcelona) and quartz cuvettes (Hellma Analytics) to quantify the amount of gold nanoparticles present (GNP, GNP-P1, and GNP-P2). The amount of free peptide (P1, P2) was determined by means of HPLC, using a Waters 996 photodiode array detector instrument equipped with a Waters 2695 separation module and Millenium software. An Xbridge BEH130 C18 4.6×100 mm 3.5 μm reverse phase HPLC column by Waters was used. In both cases, UV detection was performed at 220 nm. Peptide P1 was analyzed with a mobile phase B gradient of 5 to 100% for 8 minutes at a flow rate of 1.0 ml/min, the retention time being 6.5 minutes. Peptide P2 was analyzed with a mobile phase B gradient of 0 to 20% for 8 minutes at a flow rate of 1.0 ml/min, the retention time being 1.5 minutes. The eluents used in both cases were: Mobile phase A: 0.045% of TFA/H2O, mobile phase B: 0.036% of TFA/ACN.

A short description of data set [2]: Zeta potential of nanoparticles (Zetasizer Nano ZS). In kind it is physicochemical. The following applies: 1 mg/mL in water, 25° C. Here is the method:
The preparation of the samples for determining the Z potential consists of weighing 1 mg if it is powder and it is suspended in 1 mL of milli-Q H2O. Whereas in the case of liquid samples, a 100 μL aliquot of the sample to which 900 μL of milli-Q H2O are added is collected with an automatic pipette. Then the Z potential measurement is taken using DTS1070 plastic cuvettes and Zetasizer Nano ZS series equipment (Malvern Instruments) of the Instituto de Quimica Avanzada de Cataluña (Advanced Chemistry Institute of Catalonia), CSIC.
(§1) The Z potential of the nanoparticles synthesized was determined using DTS1070 plastic cuvettes and Zetasizer Nano ZS series equipment (Malvern Instruments, of the Instituto de Quimica Avanzada de Cataluña, CSIC). The preparation of the samples consists of 1 mg if it is powder and it is suspended in 1 mL of milli-Q H2O. In the case of liquid samples, a 100 μL aliquot of the sample to which 900 μL of milli-Q H2O are added is collected with an automatic pipette such that there is always a concentration of 1 mg/mL of sample. Then the Z potential measurement is taken at a temperature of 25° C.

Data set [3] can be described thus: Nanoparticle size by dynamic light scattering (DLS). In kind it is physicochemical. The following applies: 1 mg/mL in water, 25° C. How it is done: The size of the nanoparticles can be determined by means of conventional methods in the art, particularly by means of dynamic light scattering (DLS). First the samples are prepared to determine particle size. To that end, 1 mg is weighed if it is powder and it is suspended in 1 mL of milli-Q H2O. In the case of liquid samples, a 100 μL aliquot of the sample to which 900 μL of milli-Q H2O are added is collected with an automatic pipette. Then the particle size measurement is taken using quartz cuvettes and Zetasizer Nano ZS series equipment (Malvern Instruments) of the Instituto de Quimica Avanzada de Cataluña (Advanced Chemistry Institute of Catalonia), CSIC.
as §1, with “The size” for “The Z potential”, “nanoparticles (GNP, GNP-P1, and GNP-P2)” for “nanoparticles synthesized”, “determined by dynamic light scattering (DLS) for which quartz” for “determined using DTS1070 plastic”, “Instruments,” for “Instruments, of the”, “de Cataluña) were used.” for “de Cataluña, CSIC).”, “the particle size” for “the Z potential”

Data set [4] is described as follows: Concentration of peptide incorporated in nanoparticles by HPLC. The following applies: UV 220 nm. The class given is physicochemical. Here is the method: The concentration of the peptide (P1 or P2) incorporated in the nanoparticles (GNP-P1 and/or GNP-P2) was determined by HPLC, using a Waters 996 photodiode array detector instrument equipped with a Waters 2695 separation module and Millenium software. An Xbridge BEH130 C18 4.6×100 mm 3.5 μm reverse phase HPLC column by Waters was used. UV detection was performed at 220 nm, and a mobile phase B gradient of 5 to 100% was performed for 8 minutes at a flow rate of 1.0 ml/min. Under these conditions, the retention time being 6.4 min for both peptides P1 and P2. Mobile phase A: 0.045% of TFA/H2O, mobile phase B: 0.036% of TFA/ACN.

Where a SMILES comes first, the peptide text is derived from it. Where no end group is shown, it is not given here. The star is where a group is joined. Palmitoyl = CCCCCCCCCCCCCCCC(=O)*

Consider `CCCCCCCCCCCCCCCC(=O)N[C@@H](CCCCN)C(=O)N[C@H](C(=O)N[C@H](C(=O)N[C@@H](CCCCN)C(=O)N[C@@H](CO)C(=O)O)[C@@H](C)O)[C@@H](C)O` [Example P1, Palm-L-Lys-L-Thr-L-Thr-L-Lys-L-Ser-OH] (Palmitoyl-KTTKS-OH), for which the “Cutaneous penetration (skin layers reached)” value in data set [1] is “only penetrated the outermost layers external of the skin”.
Turning to “GNP − P1: gold nanoparticles conjugated with the peptide of formula (I) wherein R is a palmitoyl moiety (Palm-SEQ ID NO: 1) (Palmitoyl-KTTKS; also: conjugated to gold nanoparticles)”, in data set [2], the “Nanoparticle Zeta potential” value is −35 mV. In addition, in data set [3], the Nanoparticle diameter is recorded as 150-200 nm. Moreover, in data set [4], the “Maximum concentration of peptide in nanoparticles” value turned out to be 0.3 mg/mL. In data set [1], the “Cutaneous penetration (skin layers reached)” value was “penetration reached more internal layers such as the epidermis and dermis”; the “Change in cutaneous penetration upon conjugating the peptide with gold nanoparticles” value is recorded as “considerable increase in penetration”.
As for “GNP − P2: gold nanoparticles conjugated with the peptide of formula (II) (P2; Palm-SEQ ID NO: 2) (Palmitoyl-CKTTKSCTTKS; cysteine pairing not given here; also: conjugated to gold nanoparticles)”, in data set [2], the “Nanoparticle Zeta potential” value is recorded as −59 mV. Besides, in data set [3], the Nanoparticle diameter is on record as 150-200 nm. Also, the “Maximum concentration of peptide in nanoparticles” value in data set [4] is on record as 0.3 mg/mL.
As to “Palm-L-Cys-L-Lys-L-Thr-L-Thr-L-Lys-L-Ser-L-Cys-L-Thr-L-Thr-L-Lys-L-Ser-OH [Example P2]”, the “Change in cutaneous penetration upon conjugating the peptide with gold nanoparticles” value in data set [1] is “increase in penetration is not observed”.

These data come from patent publication US20230270636A1, “GOLD AND PALMITOYL PENTAPEPTIDE-4 NANOPARTICLES” (INFINITEC ACTIVOS, S.L., priority 2018, published 2023).
